Results reported in patent US20010011078A1 (University of Texas, published 2001).
Blank lines part the entries; values can stand above or below the molecule they belong to.

Assays:
[1] = biological target: recombinant DFF40 tagged with six histidine at its C-terminus (human) (UniProt O76075); test: cell-based or functional assay
[2] = tested on: poly(ADP-ribose) polymerase (PARP)
[3] = tested on: T1, DFF40 (40-kDa subunit of DNA fragmentation factor), native human protein
T1 sequence: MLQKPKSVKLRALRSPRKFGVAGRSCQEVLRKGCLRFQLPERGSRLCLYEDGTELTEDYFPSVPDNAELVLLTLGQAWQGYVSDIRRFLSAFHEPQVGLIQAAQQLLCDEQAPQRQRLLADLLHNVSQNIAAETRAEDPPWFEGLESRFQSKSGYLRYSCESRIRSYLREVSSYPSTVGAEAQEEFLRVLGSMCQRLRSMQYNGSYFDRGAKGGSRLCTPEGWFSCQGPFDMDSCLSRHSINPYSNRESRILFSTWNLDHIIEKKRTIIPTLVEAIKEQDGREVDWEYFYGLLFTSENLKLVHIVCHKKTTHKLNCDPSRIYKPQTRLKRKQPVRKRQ

[4] = tested on: T2, DFF45 (45-kDa subunit of DNA fragmentation factor), native human protein
T2 sequence: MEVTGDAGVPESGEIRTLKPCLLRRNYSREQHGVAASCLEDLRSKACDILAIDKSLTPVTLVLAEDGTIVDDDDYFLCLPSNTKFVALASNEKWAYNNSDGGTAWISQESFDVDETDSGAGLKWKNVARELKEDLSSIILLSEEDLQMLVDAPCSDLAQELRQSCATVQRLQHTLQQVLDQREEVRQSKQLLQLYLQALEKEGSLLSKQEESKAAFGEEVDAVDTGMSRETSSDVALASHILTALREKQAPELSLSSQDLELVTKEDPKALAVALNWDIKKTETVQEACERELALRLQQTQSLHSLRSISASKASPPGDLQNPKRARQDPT

[5] = tested on: T3, DFF45 fusion protein with a six-histidine tag at the NH2-terminus
T3 sequence: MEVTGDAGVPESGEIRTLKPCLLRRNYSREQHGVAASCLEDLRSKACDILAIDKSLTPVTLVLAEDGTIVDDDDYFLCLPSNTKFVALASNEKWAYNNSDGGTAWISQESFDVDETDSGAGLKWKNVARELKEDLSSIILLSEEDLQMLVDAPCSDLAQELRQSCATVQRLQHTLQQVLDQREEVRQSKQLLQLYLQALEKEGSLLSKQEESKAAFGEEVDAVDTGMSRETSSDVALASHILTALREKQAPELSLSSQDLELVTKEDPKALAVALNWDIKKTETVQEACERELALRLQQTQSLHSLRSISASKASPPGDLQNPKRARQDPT

[6] = biological target: T4, DFF40 (40-kDa subunit of DNA fragmentation factor), native human protein (human, UniProt O76075 1-338); test: co-elution from the Mono Q column (last purification step), SDS-PAGE with Coomassie stain
T4 construct: Native protein purified from HeLa S-100 as part of the DFF heterodimer; also called 40-kDa polypeptide
T4 sequence: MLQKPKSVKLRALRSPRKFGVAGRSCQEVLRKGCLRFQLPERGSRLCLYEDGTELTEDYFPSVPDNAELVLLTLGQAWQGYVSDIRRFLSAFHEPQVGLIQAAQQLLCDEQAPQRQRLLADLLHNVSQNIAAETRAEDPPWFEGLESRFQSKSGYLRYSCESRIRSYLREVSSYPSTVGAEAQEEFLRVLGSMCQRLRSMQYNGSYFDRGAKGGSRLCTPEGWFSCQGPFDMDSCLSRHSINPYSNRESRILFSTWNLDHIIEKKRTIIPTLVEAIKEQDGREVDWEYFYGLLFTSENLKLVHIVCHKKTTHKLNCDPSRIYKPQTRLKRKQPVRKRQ
Protocol: Ammonium sulfate (1 M) was added directly to the SP-Sepharose 0.5 M eluate. After rotating at 4° C. for 1 hr, the sample were centrifuged at 15,000 rpm for 30 min in a Sovall IA-600 rotor. The supernate was directly loaded onto a 100 ml phenyl Sepharose column equilibrated with buffer A containing 1 M ammonium sulfate and 0.5 M NaCl. The column was washed with three bed volumes of buffer A containing 1 M ammonium sulfate and 0.5 M NaCl and the bound material was eluted with two bed volumes of buffer A. […] was added to the phenyl Sepharose eluate to 50% saturation. After stirring at 4° C. for 5 hr, the sample was centrifuged at 15,000 rpm for 15 min in a Sovall JA-600 rotor. The pellet was resuspended in buffer A and loaded onto a Superalex-200 16/60 gel filtration column (Pharmacia) equilibrated with buffer A and eluted with the same buffer. Fractions of 4 ml were collected and assayed for DFF activity. The active fractions from the gel filtration column were pooled and loaded onto a MonoS 10/10 column (Pharmacia) equilibrated with buffer A. The column was washed with 50 ml of buffer A and eluted with a 200 ml 0-0.2 M linear NaCl gradient. […]
DFF activity eluted from a Mono Q column, the last step of the purification, at about 250 mM NaCl. […] No other proteins were detected in fraction containing the peak of DFF activity.

DNase activity of A-DFF40 on purified plasmid DNA [1]: > 10 fold
Molecule: histone H1

Molecule: caspase-3 (active recombinant)
rate of cleavage in isolated nuclei (immunoblot) [2]: The same conclusion was obtained when the rate of cleavage of PARP was measured
cleavage of biotinylated DFF (SDS-PAGE, streptavidin-peroxidase chemiluminescence) [3]: the 40-kDa subunit remained intact
cleavage of biotinylated DFF (SDS-PAGE, streptavidin-peroxidase chemiluminescence) [4]: Incubation with caspase-3 resulted in the cleavage of the 45-kDa subunit into fragments of molecular masses of 30 kDa and 11 kDa
cleavage of the fusion protein (SDS-PAGE) [5]: Incubation of this fusion protein with caspase-3 resulted in its cleavage into three fragments of 30 kDa, 18 kDa and 11 kDa at the early time point
time course of cleavage in isolated nuclei (immunoblot) (lamin B1): the rate of lamin B1 cleavage by caspase-3 remained the same with or without DFF

binding result [6]: binds
B1: DFF45 (45-kDa subunit of DNA fragmentation factor), native human protein (other)
chain: MEVTGDAGVPESGEIRTLKPCLLRRNYSREQHGVAASCLEDLRSKACDILAIDKSLTPVTLVLAEDGTIVDDDDYFLCLPSNTKFVALASNEKWAYNNSDGGTAWISQESFDVDETDSGAGLKWKNVARELKEDLSSIILLSEEDLQMLVDAPCSDLAQELRQSCATVQRLQHTLQQVLDQREEVRQSKQLLQLYLQALEKEGSLLSKQEESKAAFGEEVDAVDTGMSRETSSDVALASHILTALREKQAPELSLSSQDLELVTKEDPKALAVALNWDIKKTETVQEACERELALRLQQTQSLHSLRSISASKASPPGDLQNPKRARQDPT
notes: Native protein, purified from HeLa S-100 as part of the DFF heterodimer, or endogenous in 293 and U937 cell extracts; also called 45-kDa polypeptide; endogenous protein
